We go through six molecules from US20230322893A1, “CD47 BINDER AND LIPOSOME COMPLEX FOR CANCER TREATMENT” (priority 2020, published 2023).

The target of one data set is recombinant CD47 protein (Homo sapiens, UniProt Q08722). Briefly: SPR, CD47 conjugated to CM5 chip by EDC-NHS. It is filed as binding. Here is the method:
Specifically, the recombinant CD47 protein was conjugated to the surface of the CM5 chip by a target SPR reaction of 250 RU through an EDC-NHS reaction to be used, and for HBS-P, the sensogram obtained through a process of association for 3 minutes and dissociation for 10 minutes at a flow rate of 30 µL/minutes was analyzed with the BiaEvaluation software using a 1:1 binding model and global fitting.

In a further data set the test system is dUMP. The note with it: read-out: Preferred Substrate (Km), dUMP; cited from earlier work.
Data set [1] relates to colon cancer cell line HCT-116. Briefly: Trypan blue assay, cell viability and cell growth inhibition. It is filed as cell-based. The note with it: HCT-116, 1.25 µg mRNA, 24 hours. How it is done:
T001 is more specific to the nucleic acid T due to its structural difference from NT5M. Therefore, nucleic acid imbalance due to the loss of dTTP rather than the overall loss of nucleic acid may have a greater effect on cancer cell metabolism and thereby inhibit the growth of cancer cells. […] Each mRNA was transfected into the colon cancer cell line HCT-116, and 24 hours thereafter, Trypan blue assay was performed and the results of cell viability and cell growth inhibition on HCT-116 are shown in FIG. 13. The specific experimental method is as follows.
HCT-116 cells were transfected with 1.25 µg each of non-mature form NT5M, mature form NT5M, and CT mRNA. After 24 hours, the resultants were each treated with trypsin and the cells were harvested using a centrifuge. After resuspending the harvested cells with 1× DPBS, a certain amount of cells were mixed with trypan blue reagent at a 1:1 ratio. After incubation for 2 minutes at room temperature (RT), the number of cells was counted using a hemocytometer. After obtaining the number of cells stained and unstained with the trypan blue reagent, the number of viable and non-viable cells was obtained, and then divided by the total number of cells to obtain the viability. Each experiment was repeated three or more times to evaluate the significance.

Another data set concerns dGMP. Conditions: read-out: Preferred Substrate (Km), dGMP; cited from earlier work.
The test system of data set [2] is dTMP. Conditions: read-out: Preferred Substrate (Km), dTMP; cited from earlier work.
In data set [3] the test system is dTMP. Description: 5′-nucleotidase preferred substrate Km, dTMP. The class given is biochemical. The note with it: according to Table 4.
A further data set relates to dAMP. The note with it: read-out: Preferred Substrate (Km), dAMP; cited from earlier work.
Where [4] appears, read: CM5 chip, CD47 250 RU, 30 µL/minutes.

What is called Km is the concentration of substrate that gives half-maximal velocity.

Chain of recombinant CD47 protein (Q08722 19-323): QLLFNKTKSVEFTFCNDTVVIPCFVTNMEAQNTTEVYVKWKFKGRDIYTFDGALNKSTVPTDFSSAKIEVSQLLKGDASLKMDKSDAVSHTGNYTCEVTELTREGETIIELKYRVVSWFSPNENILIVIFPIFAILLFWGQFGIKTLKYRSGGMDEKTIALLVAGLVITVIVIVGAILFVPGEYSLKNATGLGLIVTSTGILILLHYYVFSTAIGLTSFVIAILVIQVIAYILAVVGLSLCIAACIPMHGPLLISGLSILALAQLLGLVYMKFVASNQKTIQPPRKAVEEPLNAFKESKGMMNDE

B1: SV4: binder of SEQ ID NO: 2; SV1 with lysines at the 11th and 104th positions substituted with leucine (protein)
chain: MEEELQIIQPDLSVSVAAGESAILHCTITSLFPVGPIQWFRGAGPARVLIYNQRQGPFPRVTTVSETTKRENMDFSISISNITPADAGTYYCIKFRKGSPDTEFLSGAGTELSVRAKPS
modifications: CD47 binder SV4
For the molecule B1, the “binding activity when conjugated with DSPE and when inserted into liposomes” value in the data set with recombinant CD47 protein is listed as “maintained within the error range”. For the same molecule, in the data set with recombinant CD47 protein (setting [4]), the ka amounted to 164000 M⁻¹ s⁻¹ and the kd was determined as 0.000275 s⁻¹.

B2: SV4-DSPE: DSPE-conjugated form of SV4 (NHS-activated DSPE-PEG2000 with SV4 protein) (conjugate)
chain: B1 chain
For B2, the kd in the data set with recombinant CD47 protein (setting [4]) came out at 0.000256 s⁻¹.

B3: T001: Thymidylate 5′-phosphohydrolase derived from bacteriophage PBS2, gene sequence optimized (SEQ ID NO: 3); final drug form mRNA (protein)
chain: MVFSIKEPFSIVTDCDEVLTDISPLWVHKIQQNADYFGKYFDLSKLEGLEFGTFEHYQTVLSRPEFHLNKWLRKENLVLSDEEEKELFERFYSLYDNDEFYEDCMPTKMCEGIYKLSLQKFVDKIYVVTRTSEGTKEGKRKFIETFLNSNKVEIIFVGKNEKKSDYIKNLKNVKMIVEDELSNINDIVENCNDGFEEVDTYIPSTGYNNKDIDGFNENLMKKGFNAVPYVIIERPETEEKAV
modifications: T001
notes: final drug form mRNA
On to B3, for which the results for the Km in the data set with dUMP, with dGMP and with dTMP [2] were 800 µM, 700 µM and 10 µM, respectively. For the same molecule, the “effect on cells (cell viability and cell growth inhibition)” value in data set [1] was “greater than that of human NT5M”.

B4: NT5M (hdNT-2): human mitochondrial 5′-nucleotidase (SEQ ID NO: 32) (protein)
chain: MGGRALRVLVDMDGVLADFEGGFLRKFRARFPDQPFIALEDRRGFWVSEQYGRLRPGLSEKAISIWESKNFFFELEPLPGAVEAVKEMASLQNTDVFICTSPIKMFKYCPYEKYAWVEKYFGPDFLEQIVLTRDKTVVSADLLIDDRPDITGAEPTPSWEHVLFTACHNQHLQLQPPRRRLHSWADDWKAILDSKRPC
modifications: NT5M
B4: the Km is 160 µM in the data set with dUMP, 90 µM in the data set with dGMP and 300 µM in the data set with dTMP [2]. The “affinity for dTMP lower than T001” value in the data set on dTMP [3] is reported as 30 times.

B5: hdNT-1: Human cytosolic 5′deoxyribonucleotidase (protein, UniProt Q8TCD5 1-201, looked up)
5'(3')-deoxyribonucleotidase, …: MARSVRVLVDMDGVLADFEAGLLRGFRRRFPEEPHVPLEQRRGFLAREQYRALRPDLADKVASVYEAPGFFLDLEPIPGALDAVREMNDLPDTQVFICTSPLLKYHHCVGEKYRWVEQHLGPQFVERIILTRDKTVVLGDLLIDDKDTVRGQEETPSWEHILFTCCHNRHLVLPPTRRRLLSWSDNWREILDSKRGAAQRE
Regarding B5, the Km in the data set with dUMP was 1500 µM; in the data set with dAMP, 3000 µM; in the data set with dGMP it was 3300 µM; with dTMP [2] it was 1500 µM.

B6: mdNT-1: Murine cytosolic 5′deoxyribnucleotidase (protein, UniProt Q9JM14 1-200, looked up)
5'(3')-deoxyribonucleotidase, …: MAVKRPVRVLVDMDGVLADFESGLLQGFRRRFPEEPHVPLEQRRGFLANEQYGALRPDLAEKVASVYESPGFFLNLEPIPGALDALREMNDMKDTEVFICTTPLLKYDHCVGEKYRWVEQNLGPEFVERIILTRDKTVVMGDLLIDDKDNIQGLEETPSWEHILFTCCHNQHLALPPTRRRLLSWSDNWRGIIESKRASL
Regarding B6, the Michaelis-Menten constant (Km) in the data set with dUMP was 800 µM; in the data set on dAMP, 1000 µM; with dGMP, 1200 µM; with dTMP [2], 1400 µM.
